{
  "source": "paper PMC8326396",
  "about": "“Label-free Electrochemical Impedance Spectroscopy Aptasensor for Ultrasensitive Detection of Lung Cancer Biomarker Carcinoembryonic Antigen”",
  "molecular_target": "carcinoembryonic antigen (CEA) (UniProt P06731 35-685)",
  "sequence (P06731 35-685)": "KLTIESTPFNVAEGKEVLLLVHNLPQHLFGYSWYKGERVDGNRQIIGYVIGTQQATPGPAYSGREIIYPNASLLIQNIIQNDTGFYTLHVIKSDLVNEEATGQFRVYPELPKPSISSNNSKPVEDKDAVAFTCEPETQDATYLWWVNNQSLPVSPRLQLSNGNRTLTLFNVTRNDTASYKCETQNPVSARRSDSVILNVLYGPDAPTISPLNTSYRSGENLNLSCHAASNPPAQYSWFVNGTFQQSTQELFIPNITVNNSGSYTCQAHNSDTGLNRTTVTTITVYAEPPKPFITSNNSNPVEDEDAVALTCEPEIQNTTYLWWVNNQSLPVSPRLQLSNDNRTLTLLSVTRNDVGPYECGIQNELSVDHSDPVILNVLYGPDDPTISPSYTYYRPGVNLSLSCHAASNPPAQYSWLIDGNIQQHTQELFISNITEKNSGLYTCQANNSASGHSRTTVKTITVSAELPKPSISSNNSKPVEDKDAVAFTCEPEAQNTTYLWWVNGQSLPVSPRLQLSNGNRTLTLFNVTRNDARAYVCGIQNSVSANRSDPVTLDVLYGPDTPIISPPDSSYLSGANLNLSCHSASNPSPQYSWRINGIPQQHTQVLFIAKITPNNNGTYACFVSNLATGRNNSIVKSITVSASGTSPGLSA",
  "assay": "electrochemical impedance spectroscopy; CEA 0.2-15.0 ng/ml linear range; LOD 0.085 ng/ml (not a Kd); CEA incubated on electrode 1 h at 37 C (70 min found optimal), wash with 0.01 M [Fe(CN)6] PBS pH 7.4; EIS in 5 mM [Fe(CN)6]3-/4-, 0.1 M PBS pH 7.0, KCl (0.1 M or 1 M, stated inconsistently)",
  "details": "protein: commercial",
  "data": [
    {"binder": "ATACCAGCTTATTCAATT (ssDNA, 5'-SH (thiol))", "note": "[CEA aptamer (CEA-A)]", "values": [
      {"measurement": "binding result", "value": "binds"}
    ]}
  ]
}
